Our source for the Kd values is doi:10.1101/2025.08.18.670068 (2025).

In general, Kd refers to the equilibrium constant for the complex coming apart. Read a high Kd as a looser complex.

Common to all, as to test: SPR
On the technique in general: Surface plasmon resonance follows binding to a sensor surface in real time, without labels.

Assay [1] addresses soluble CCR8 analogue BM3.
Assay [2] concerns the target soluble CCR8 analogue BM1.
The target of assay [3] is soluble CCR8 analogue BM7.
The target of assay [4] is soluble CCR8 analogue BM5.
The target in assay [5] is soluble CCR8 analogue BM6.

B1: mAb1 in full length human IgG1 format (antibody, V domains shown)
VH: QSVEESGGRLVTPGTPLTLTCTVSGFSLSNYAMIWVRQAPGEGLEWVGTISLGGYTYYANWAKGRFTISKTSTTVDLKISSPTTEDTATYFCARARWSTDSAIYTYAFDPWGPGTLVTVSS
VL: AYDMTQTPASVEVAVGGTVTIKCQASQSISSYLSWYQQKPGQRPELLIYKASTLASGVSSRFKGSGSGTQFTLTISDLEAADAATYYCQQGYTSSNIDNIFGGGTEVVVK
For the molecule B1, the Kd in assay [1] was 154 nM; in assay [2], 267 nM; in assay [3] it was 252 nM; in assay [4], 629 nM; in assay [5], 552 nM.
